Experimental data: paper PMC6643034, “A knottin scaffold directs the CXC-chemokine–binding specificity of tick evasins” (The Journal of Biological Chemistry, 2019)

B2: CXCL13 (ligand, human, UniProt O43927 23-109, looked up)
chain: VLEVYYTSLRCRCVQESSVFIPRRFIDRIQILPRGNGCPRKEIIVWKKNKSIVCVDPQAEWIQRMMEVLRKRSSSTLPVPVFKRKIP
notes: human CXCL13
B9: CXCL11 (ligand, human, UniProt O14625 22-94, looked up)
chain: FPMFKRGRCLCIGPGVKAVKVADIEKASIMYPSNNCDKIEVIITLKENKGQRCLNPKSKQARLIIKKVERKNF
notes: human CXCL11

Columns and labels:
Conditions in all cases: both partners purified
[1] = target: T1, CXCL3 (human, UniProt P19876 35-107); assay: BLI; cross-binding screen on OctetRed; evasin held on a nickel-coated biosensor through its C-terminal His tag; each human chemokine at 300 nM
T1 construct: human CXCL3

[2] = target: T2, CXCL10 (human, UniProt P02778 22-98); assay: as above
T2 construct: human CXCL10

[3] = target: T3, CXCL2 (human, UniProt P19875 35-107); assay: as above
T3 construct: human CXCL2

[4] = target: B9; assay: as above
[5] = target: B2; assay: as above
[6] = target: T4, CXCL1 (human, UniProt P09341 35-107); assay: as above
T4 construct: human CXCL1

[7] = target: T5, P1080_IXORI (Ixodes ricinus, UniProt A0A090XBL6 20-118); assay: as above
T5 construct: evasin P1080, mature peptide, 99 residues; N-terminal DGG expected after signal peptide cleavage; glycosylated

[8] = target: T1, CXCL3; assay: as above; remark: listed apart in the source
[9] = target: T2, CXCL10; assay: as above; remark: listed apart in the source
[10] = target: T3, CXCL2; assay: as above; remark: listed apart in the source
[11] = target: B9; assay: as above; remark: listed apart in the source
[12] = target: T4, CXCL1; assay: as above; remark: listed apart in the source
[13] = target: T1, CXCL3; assay: as above; remark: listed apart in the source
[14] = target: T3, CXCL2; assay: as above; remark: listed apart in the source
[15] = target: T4, CXCL1; assay: as above; remark: listed apart in the source
[16] = target: T6, CXCL3 (human, UniProt P19876 35-107); assay: BLI; OctetRed; parental evasins and domain-swap hybrids held by the His tag; titration with chemokine from 600 to 0.4 nM; fit criterion R2 ≥ 0.89, five (in four cases four) concentrations
T6 construct: human CXCL3 of the panel of human chemokines used for biolayer interferometry

[17] = target: T7, CXCL2 (human, UniProt P19875 35-107); assay: as above
T7 construct: human CXCL2 of the panel of human chemokines used for biolayer interferometry

Measured: binding result

T5 sequence (A0A090XBL6 20-118): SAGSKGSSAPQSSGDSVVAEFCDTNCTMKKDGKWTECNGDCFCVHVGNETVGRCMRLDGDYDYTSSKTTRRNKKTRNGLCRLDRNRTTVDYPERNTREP

B1: P1100_IXORI (natural protein)
chain: GSKGSSASQSSDNSVVAKFCDTNCTINEGGKWTECKGGCFCVHVGNETVGRCMKLDGDYDYPSPKPEE
notes: evasin P1100, mature peptide, 68 residues; N-terminal DGG expected after signal peptide cleavage; glycosylated
binds: [1] | [2] | [3] | [4] | [5] | [6]

B2
binds: [7]

B3: P1078_IXORI (natural protein)
chain: GSKGSSAQQSSHDSIKAEFCETNCTMKTGGKWTQCHGGCFCVHVGNETVGRCIKLDGDYDYPSSKHEE
notes: evasin P1078, mature peptide, 68 residues; N-terminal DGG expected after signal peptide cleavage; glycosylated
binds: [1] | [3] | [4] | [5] | [6]

B4: P942_IXORI (natural protein)
chain: NQLSGPQSSANSNEAVFCDTNCTQGTDEAWSGCRGDCFCVYVGNSTEGRCMMLSGDFDYSTPGAED
notes: evasin P942, mature peptide, 66 residues; N-terminal DGG expected after signal peptide cleavage; glycosylated
binds: [1] | [2] | [3] | [4] | [5] | [6]

B5: P1126_AMBCA (natural protein)
chain: KPQILQRTDKSTDSEWDPQTCPETCIPSKNITCSDGCVCVKLGEEEEGTCFNMTGVDWLGSPSDD
notes: evasin P1126, mature peptide, 65 residues; N-terminal DGG expected after signal peptide cleavage; glycosylated
binds: [8] | [9] | [10] | [11] | [12]

B6: P1086_IXORI (natural protein)
chain: GSKGQRASQVSETSITAEFCDTSCTQGTDKTWSGCSGDCFCVHVGNDTEGRCMRWDGDYPSAEEEE
notes: evasin P1086, mature peptide, 66 residues; N-terminal DGG expected after signal peptide cleavage; glycosylated
binds: [1] | [2] | [3] | [5] | [6]

B7: EVA3_RHISA (natural protein)
chain: LVSTIESRTSGDGADNFDVVSCNKNCTSGQNECPEGCFCGLLGQNKKGHCYKIIGNLSGEPPVVRR
notes: N-terminal DGG expected after signal peptide cleavage; glycosylated; also called evasin 3; Evasin-3
binds: [13] | [14] | [15]

B8: P1142_AMBCA (natural protein)
chain: KPQILQRTDHSTDSDWDPQMCPETCNPSKNISCSSECLCVTLGGGDETGTCFNMSGVDWLGHAQASDGHNDG
notes: evasin P1142, mature peptide, 72 residues; N-terminal DGG expected after signal peptide cleavage; glycosylated
binds: [8] | [9] | [10] | [11] | [12]

B9
binds: [7]

B10: Evasin 3 (EVA3) (natural protein)
chain: DGGLVSTIESRTSGDGADNFDVVSCNKNCTSGQNECPEGCFCGLLGQNKKGHCYKIIGNLSGEPPVVRR
modifications: also: glycosylated
notes: residues expected at the N terminus after cleavage of the Igκ signal peptide (SignalP 3.0); Evasin-3 (EVA3_RHISA), Rhipicephalus sanguineus, mature peptide; class I founder; also called EVA3_RHISA; WT EVA3; source: HEK293F, transiently transfected, secreted; purified (nickel IMAC, SEC)
binds: [16] | [17]
